Assay results from US20090215115A1, “SIALYLTR[…] SEQUENCE MOTIFS” (National Research Council of Canada, priority 2004, published 2009).

Assay: α-2,3-sialyltransferase activity assay with capillary electrophoresis detection
Assay type: biochemical
Conditions: lysates of E. coli expressing the Cst-I protein; for sialyltransferase activity: acceptor 1 mM Lac-FCHASE, donor 0.2 mM CMP-Neu5Ac, 37° C., pH 7
Method: Assays. Protein concentration was determined using the bicinchoninic acid protein assay kit (Pierce, Rockford, Ill.). For all of the enzymatic assays, one unit of activity was defined as the amount of enzyme that generated one […] of product per minute. FCHASE-labelled oligosaccharides are prepared as described in Gilbert et al. (1997) Eur. J. Biochem. 249: 187-194. p-Nitrophenol-glycosides (p-NP-glycosides) were obtained from Sigma-Aldrich.
The -2,3-sialyltransferase activity was assayed at 37° C. using 1 mM Lac-FCHASE (6-(5-fluorescein-carboxamido)-hexanoic acid succimidyl ester), 0.2 mM CMP-Neu5Ac, 50 mM MOPS pH 7, 10 mM MnCl2 and 10 mM MgCl2 in a final volume of 10 μL. After 5 min the reaction mixtures with fluorogenic acceptors were diluted with 10 mM NaOH and analyzed by capillary electrophoresis performed using the separation conditions as described previously (Gilbert et al. (1997) supra.).

| Molecule | transfer of Neu5Ac from CMP-Neu5Ac to an acceptor | sialyltransferase activity [mU/ml] |
| --- | --- | --- |
| Cst-I O:19: α-2,3-sialyltransferase Cst-I from Campylobacter jejuni strain O:19, amino acid sequence of FIG. 3, SEQ ID NO:8 (protein, listed as Campylobacter jejuni, sialyltransferase polypeptide sequence from strain O19) MTRTRMENELIVSKNMQNIIIAGNGPSLKNINYKRLPREYDVFRCNQFYFEDKYYLGKKIKAVFFNPGVFLQQYHTAKQLILKNEYEIKNIFCSTFNLPFIESNDFLHQFYNFFPDAKLGYEVIENLKEFYAYIKYNEIYFNKRITSGVYMCAIAIALGYKTIYLCGIDFYEGDVIYPFEAMSTNIKTIFPGIKDFKPSNCHSKEYDIEALKLLKSIYKVNIYALCDDSILANHFPLSININNNFTLENKHNNSINDILLTDNTPGVSFYKNQLKADNKIMLNFYNILHSKDTLIKFLNKEIAVLKKQTTQRAKARIQNHLSYKLGQALIINSKSVLGFLSLPFIILSIVISHKQEQKAYKFKVKKNPNLALPPLETYPDYNEALKEKECFTYKLGEEFIKAGKNWYGEGYIKFIFKDVPRLKREFEKGE | catalyze the transfer of Neu5Ac from CMP-Neu5Ac to an acceptor | 324.9 |
| Cst-I O:36: α-2,3-sialyltransferase Cst-I from Campylobacter jejuni strain O:36, amino acid sequence of FIG. 2, SEQ ID NO:6 (protein, listed as Campylobacter jejuni, sialyltransferase polypeptide sequence from strain O36) MTRTRMENELIVSKNMQNIIIAGNGPSLKNINYKRLPREYDVFRCNQFYFEDKYYLGKKIKAVFFNPGVFLQQYHTAKQLILKNEYEIKNIFCSTFNLSFIESNDFLHQFYNFFPDAKLGYEVIENLKEFYAYIKYNEIYFNKRITSGVYMCAIAIALGYKTIYLCGIDFYEGDVIYPFEAMSTNIKTIFPGIKDFKPSNCHSKEYDIEALKLLKSIYKVNIYALCDDSILANHFPLSININNNFTLENKHNNSINDILLTDNTPGVSFYKNQLKADNKIMLDFYNILHSKDNLIKFLNKEIAVLKKQTTQRAKTRIQNHLSYKLGQALIINSKSVLGYLSLPFIILSIVISHKQEQKAYKFKVKKNPNLALPPLETYPDYKEALKEKECFTYKLGEEFIKASKNWYGGGYIKFYFKDVSRLKREIKEK | catalyze the transfer of Neu5Ac from CMP-Neu5Ac to an acceptor | 50.3 |
